Results as given in article PMC8546699, “Ehrlichia chaffeensis TRP120 Is a Wnt Ligand Mimetic That Interacts with Wnt Receptors and Contains a Novel Repetitive Short Linear Motif That Activates Wnt Signaling” (mSphere, 2021).

Legend:
[1] = target: rTRP120-tandem repeat domain truncate construct (rTRP120-TRD) (Ehrlichia chaffeensis) (UniProt Q2GI62); assay: SPR; His-tagged rTRP120-FL or rTRP120-TRD (0.1 µM) captured on Ni-NTA sensor chip; rFzd-ECD 0 to 1,600 nM flowed over; Biacore T100; 100 mM NaPO4 pH 7.4, 400 mM NaCl, 40 µM EDTA, 0.005% Tween 20; 1:1 fit
[2] = target: T1, recombinant, full-length TRP120 (rTRP120-FL) (Ehrlichia chaffeensis, UniProt Q2GI62 1-548); assay: as above; conditions: both partners purified
T1 construct: Ehrlichia chaffeensis tandem repeat protein TRP120, full-length gene cloned upstream of a 6xHis tag; Thioredoxin fusion from the vector pBAD/Thio-TOPO; also called rTRP12-FL; source: E. coli TOP10, pBAD/Thio-TOPO, purified (His-tag purification resin); not shown: His6, C-terminal, kept
T1 sequence: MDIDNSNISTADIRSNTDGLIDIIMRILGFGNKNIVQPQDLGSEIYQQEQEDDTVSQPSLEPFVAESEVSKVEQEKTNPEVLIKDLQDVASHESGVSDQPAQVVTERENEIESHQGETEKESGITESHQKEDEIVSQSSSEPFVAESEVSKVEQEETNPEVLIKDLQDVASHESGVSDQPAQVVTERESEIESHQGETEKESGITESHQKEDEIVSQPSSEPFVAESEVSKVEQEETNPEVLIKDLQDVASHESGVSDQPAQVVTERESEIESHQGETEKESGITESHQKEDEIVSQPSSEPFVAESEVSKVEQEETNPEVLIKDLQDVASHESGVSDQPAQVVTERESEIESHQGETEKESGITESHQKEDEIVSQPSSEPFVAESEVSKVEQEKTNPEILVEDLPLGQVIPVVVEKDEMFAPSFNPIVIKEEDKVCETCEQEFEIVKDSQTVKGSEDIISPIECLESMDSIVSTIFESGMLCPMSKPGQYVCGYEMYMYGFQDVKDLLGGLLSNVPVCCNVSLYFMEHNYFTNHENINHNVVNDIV

Molecule: recombinant Fzd5 extracellular domain (rFzd5-ECD) (from UniProt Q13467 27-238) (domain or fragment)
- Kd [1]: 1.35 µM

B1: recombinant Fzd5 extracellular domain (rFzd5-ECD) (domain or fragment, UniProt Q13467 27-238, looked up)
chain: ASKAPVCQEITVPMCRGIGYNLTHMPNQFNHDTQDEAGLEVHQFWPLVEIQCSPDLRFFLCSMYTPICLPDYHKPLPPCRSVCERAKAGCSPLMRQYGFAWPERMSCDRLPVLGRDAEVLCMDYNRSEATTAPPRPFPAKPTLPGPPGAPASGGECPAGGPFVCKCREPFVPILKESHPLYNKVRTGQVPNCAVPCYQPSFSADERTFATFW
notes: Frizzled-5, recombinant extracellular domain (methods: 'cysteine-rich domain-truncated protein'); commercial Frizzled ECD proteins are often Fc chimeras and may be mouse (surmise); also called Fzd5-CRD; source: bought: R&D Systems
- Kd [2]: 46.3 µM
